The data set can be described thus: yeast display, Sf9 membrane polyspecificity reagent, FACS + sequencing; frameworks hold sequencing errors. In a few lines: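 A synthetic nanobody library was expressed on Saccharomyces cerevisiae BJ5465 by galactose induction for 36–48 hours. The library was stained for 1 hour at 4 °C with 10% biotinylated, detergent-solubilized Sf9 membrane reagent and enriched with streptavidin microbeads before FACS. Low and high (top ~1%) gates were set on anti-HA fluorescence for expression and streptavidin fluorescence for reagent binding, and each polyreactivity label reflects the gate of origin.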
Turning to “QVQLVESVGGLVQAGGSLRLSCSASGRTFAFYAMGWYRQAPGKVRELVASISSTGDRTYYADSVKGRFTISRDNAKNTVYLQMNSLIPEDTAVYYCAARWRYTYYYWGQGTQVTVSS”, the “polyreactivity (PSR sort gate)” value is “high polyreactivity”.
The same measure for “QVQLVESGGGLVHAGGSLRLSCAASGYTFQWYDMGWYRQAPGKERELVASISWRGGSTYYADSVKGRFTISRDHAKNTVYLQMNSLKPEDTAVYYCAASLWPDYEYDYWGQGTQVTVSS”: “low polyreactivity”.
With “QVQLVESGGGLVQAGGGLRLSCAASGSIFGSYAMGWYRQAPAKERELVAGITYRGSSTYYADSVKGRFTISRDNAKNTVYLQMTSLKPEDSAVYYCAADPVFDEYDYWGQGTQVTVSS”, the “polyreactivity (PSR sort gate)” value is on record as “low polyreactivity”.
The entry for “QVQLVESGGGLVQAGGSLRLSCAASGSIFDHNAMGWYRQAPGKEREFVAAISSSGGSTYYADSVKGRFTISRDKAKNTVYLQMNSLKPEDTAVYYCAAFPDRYVEHGYWGQGTQVTVSS” is “low polyreactivity”; for “QVQLVESGGGLVEAGGSLRLSCAASGRIFTGYAMGWYRQAPGKERELVAAISDGGSTNYADSVKGRFTISRDNAKNTVYLQMNSLKPEDTAVYYCAADGHSSDQYDYWGPGTQVTVSS” it is “low polyreactivity”; for “QVQLVESGGGLVQAGGSLRLSCAASGRTIYRYAMGWYRQAPGKERELVAAITRRGVNTYYADSVKGRFTISRDNAKNTVYLQMNSLKPEDTAVYYCAAENGALVTYGYWGQGTQVTVSS” it is “high polyreactivity”.
Take “QVQLVESGGGLVQAGGSLRLRCAASGSTFTGNTMGWYRQAPGKERELVAAITYRGGSTYYADSVKGRLTISRDNAKNTVYLQMNSLKPEDTAVYYCAAAGYYYSVEGAGPRYDYWGQGTQVTVSS”: the “polyreactivity (PSR sort gate)” value is listed as “low polyreactivity”.
The entry for “QVQLVESGGGLVQAGGSLRLSCAASGSIFLYYAMGWYRQAPGKERELVAAISGRAGSTYYADSVKGRFTISRDNAKNTVYLQMNSLKPEDTSVYYCAAGYWHGYPGFKYYWGQGTQVTVSS” is “low polyreactivity”.
In the case of “QGQLVVSGGGLVQAGGSLRLSCAASGRTFSVNAMGGYRQAPGKERELVAAITSGASTNYADSVKGRFTISRDNAKNTVYLQMNSLKPEDTAVYYCAADATYGHVPAEYDYWGQGTQVTVSS”, the “polyreactivity (PSR sort gate)” value is “low polyreactivity”.
The same measure for “QVQLVESGGGLVQAGGSLRLSCAASGSIFRFYAMGWYRQAPGTERELVAAISSSGSSTYYADSVKGRFTISRDNAMNTVYLQMNSLKPEDTAVYYCNARLGWSRAWSMDSWGQGTQVTVSS”: “high polyreactivity”.
Consider “QVQLEESGGGLVQAGGSLRLSCAASGYIFYEYAMGWYRQAPGKERELVAAISRRGGRTYYADSVKGRFTISRDNAKNTVYLQMHSLKPEDTAVYYCAASVRFGDYEYWGQGTQVTVSS”, for which the “polyreactivity (PSR sort gate)” value was “high polyreactivity”.
As to “QVQLVESGGGLVQAGGSLRLSCAASGRTFYTYAMGWYRQAPGKERELVAAITYRGGNTYYADSVKGRFTISRDNAKNTVYLEMNSLKPEDTAVYYCAATYKRRSGQSFDYWGQGTQVTVSS”, the “polyreactivity (PSR sort gate)” value is “high polyreactivity”.
The entry for “QVQLVESGGGLVQAGGSLRLSCAASGFTFYGYAMGWYRQAPGKEREFVADISSRDGSTYYADSVKGRFTISRDNAKNTVYLQMNSLKPEDTAVYYCAADSGQYKWSDYDYWGQGTQVTVSS” is “low polyreactivity”; for “QVQLVESGGGLVQAGGSLRLSCSASGFIFYGYTMGWYRQAPGKERELVAAITFSGGRTYYADSVKGRFTISRDHAKNTVYLQMNSLKPEDSAVYYCAALHYGRYRMDYWGQGTQVTVSS” it is “high polyreactivity”; for “QVQLVESGGGLVQAGGSLRLSCAASGITFGTYAMGWYRQAPGKERELVAAISQSSGRTYYADSVKGRFTISRDNAKNSVYLQMNSLKPEDTAVYYCADRTRGSSRGDYDYWGQGTQVTVSS” it is “high polyreactivity”.
The entry for “QVQLVESGGGLVQAGGSLRLSCAASGYTFFRYAMGWYRQAPGKERELVAAITGSGGRTYYADSVKGRFTISRDNAKNTVYLQMNSLKPEDTAVYYCNRYGSGHSFIYDYWGQGTQVTVSS” is “high polyreactivity”.
